Test results as given in paper PMC8379338, “Structures of heat shock factor trimers bound to DNA” (iScience, 2021).

What was measured:
[1] = molecular target: the molecule itself; experiment: crystal structure; DBD co-crystallised with a sticky-ended three-site HSE DNA duplex (21 bp for HSF2; 23 bp and 24 bp for HSF1); protein:DNA molar ratio 3:1.2; hanging drop, 20°C; three DBD copies on one DNA duplex
HSF2-DBD = HSF2-DBD (Homo sapiens, UniProt Q03933 7-112); experiment: X-ray crystallography; 1.7 A; Co-crystallization at 20 C, hanging drop; protein stock in 20 mM Tris pH 8.0, 150 mM NaCl, 1 mM DTT, 0.2 mM EDTA; DNA annealed in TE; protein:DNA 2:1.5 (2-site) or 3:1.2 (3-site); HSF2 3-site reservoir 0.1 M HEPES pH 7.5, 25% PEG; conditions: protein: recombinant; tags: His6 (N-terminal, between MBP and DBD; MBP removed in vivo by TEV protease); chain copies: 2; blunt; self-complementary, 2 copies of the strand
HSF1-DBD = HSF1-DBD (Homo sapiens, UniProt Q00613 15-120); experiment: X-ray crystallography; 2.0 A; Co-crystallization at 20 C, hanging drop; protein stock in 20 mM Tris pH 8.0, 150 mM NaCl, 1 mM DTT, 0.2 mM EDTA; DNA annealed in TE; protein:DNA 2:1.5 (2-site) or 3:1.2 (3-site); HSF2 3-site reservoir 0.1 M HEPES pH 7.5, 25% PEG; conditions: protein: recombinant; tags: His6 (N-terminal, between MBP and DBD; MBP removed in vivo by TEV protease); chain copies: 2; blunt; self-complementary, 2 copies of the strand
HSF2-DBD trimer = HSF2-DBD trimer (Homo sapiens, UniProt Q03933 7-112); experiment: X-ray crystallography; 1.75 A; Co-crystallization at 20 C, hanging drop; protein stock in 20 mM Tris pH 8.0, 150 mM NaCl, 1 mM DTT, 0.2 mM EDTA; DNA annealed in TE; protein:DNA 2:1.5 (2-site) or 3:1.2 (3-site); HSF2 3-site reservoir 0.1 M HEPES pH 7.5, 25% PEG; conditions: protein: recombinant; tags: His6 (N-terminal, between MBP and DBD; MBP removed in vivo by TEV protease); chain copies: 3; 20 bp, 5' overhang 1 nt on both strands
HSF1-DBD trimer [2] = molecular target: T1, HSF1-DBD trimer (Homo sapiens, UniProt Q00613 15-120); experiment: X-ray crystallography; 2.4 A; Co-crystallization at 20 C, hanging drop; protein stock in 20 mM Tris pH 8.0, 150 mM NaCl, 1 mM DTT, 0.2 mM EDTA; DNA annealed in TE; protein:DNA 2:1.5 (2-site) or 3:1.2 (3-site); HSF2 3-site reservoir 0.1 M HEPES pH 7.5, 25% PEG; conditions: protein: recombinant; tags: His6 (N-terminal, between MBP and DBD; MBP removed in vivo by TEV protease); chain copies: 3; 22 bp, 5' overhang 1 nt on both strands
HSF1-DBD trimer [3] = molecular target: T1, HSF1-DBD trimer; experiment: X-ray crystallography; 2.36 A; Co-crystallization at 20 C, hanging drop; protein stock in 20 mM Tris pH 8.0, 150 mM NaCl, 1 mM DTT, 0.2 mM EDTA; DNA annealed in TE; protein:DNA 2:1.5 (2-site) or 3:1.2 (3-site); HSF2 3-site reservoir 0.1 M HEPES pH 7.5, 25% PEG; conditions: protein: recombinant; tags: His6 (N-terminal, between MBP and DBD; MBP removed in vivo by TEV protease); chain copies: 3; 23 bp, 5' overhang 1 nt on both strands

B1: DNA-binding domain (DBD) of human heat shock factor 1 (HSF1), residues 15-120 (domain or fragment, UniProt Q00613 15-120, looked up)
chain: VPAFLTKLWTLVSDPDTDALICWSPSGNSFHVFDQGQFAKEVLPKYFKHNNMASFVRQLNMYGFRKVVHIEQGGLVKPERDDTEFQHPCFLRGQEQLLENIKRKVT
notes: The His6 tag lies between the TEV site and the DBD; MBP was removed in vivo by co-expressed TEV protease; In the crystals, two or three copies sit on one DNA duplex; also called HSF1-DBD; DBD I; source: E. coli Rosetta2(DE3) carrying pRK603, purified (Ni-NTA, cation exchange, SEC); not shown: MBP, N-terminal, cleaved
B1: binds [1].

B2: DNA-binding domain (DBD) of human heat shock factor 2 (HSF2), residues 7-112 (domain or fragment, UniProt Q03933 7-112, looked up)
chain: VPAFLSKLWTLVEETHTNEFITWSQNGQSFLVLDEQRFAKEILPKYFKHNNMASFVRQLNMYGFRKVVHIDSGIVKQERDGPVEFQHPYFKQGQDDLLENIKRKVS
notes: The His6 tag lies between the TEV site and the DBD; MBP was removed in vivo by co-expressed TEV protease; In the crystals, two or three copies sit on one DNA duplex; also called HSF2-DBD; DBD I; source: E. coli Rosetta2(DE3) carrying pRK603, purified (Ni-NTA, cation exchange, SEC); not shown: MBP, N-terminal, cleaved
B2: binds [1].

B3: 12 bp HtH HSE (dsDNA)
DNA 1: GGGAATATTCCC
DNA 2: GGGAATATTCCC
B3: binds (HSF2-DBD).

B4: 14 bp HtH HSE (dsDNA)
DNA 1: GCCGAATATTCGGC
DNA 2: GCCGAATATTCGGC
B4: binds (HSF1-DBD).

B5: 21 bp 3-site HSE (dsDNA)
DNA 1: TGCGTTCTAGAATATTCGCGG
DNA 2: ACCGCGAATATTCTAGAACGC
B5: binds (HSF2-DBD trimer).

B6: 23 bp 3-site HSE (dsDNA)
DNA 1: TGGCGTTCTAGAATATTCGCGGA
DNA 2: ATCCGCGAATATTCTAGAACGCC
B6: binds (HSF1-DBD trimer [2]).

B7: 24 bp 3-site HSE (dsDNA)
DNA 1: TGTGCGTTCTAGAATATTCGCGAG
DNA 2: ACTCGCGAATATTCTAGAACGCAC
B7: binds (HSF1-DBD trimer [3]).
